B1: Mothers against decapentaplegic homolog 4 (Homo sapiens), Q13485 (parent)
chain: MDNMSITNTPTSNDACLSIVHSLMCHRQGGESETFAKRAIESLVKKLKEKKDELDSLITAITTNGAHPSKCVTIQRTLDGRLQVAGRKGFPHVIYARLWRWPDLHKNELKHVKYCQYAFDLKCDSVCVNPYHYERVVSPGIDLSGLTLQSNAPSSMMVKDEYVHDFEGQPSLSTEGHSIQTIQHPPSNRASTETYSTPALLAPSESNATSTANFPNIPVASTSQPASILGGSHSEGLLQIASGPQPGQQQNGFTGQPATYHHNSTTTWTGSRTAPYTPNLPHHQNGHLQHHPPMPPHPGHYWPVHNELAFQPPISNHPAPEYWCSIAYFEMDVQVGETFKVPSSCPIVTVDGYVDPSGGDRFCLGQLSNVHRTEAIERARLHIGKGVQLECKGEGDVWVRCLSDHAVFVQSYYLDREAGRAPGDAVHKIYPSAYIKVFDLRQCHRQMQQQAATAQAAAAAQAAAVAGNIPGPGSVGGIAPAISLSAAAGIGVDDLRRLCILRMSFVKGWGPDYPRQSIKETPCWIEIHLHRALQLLDEVLHTMPIADPQPLD
partner: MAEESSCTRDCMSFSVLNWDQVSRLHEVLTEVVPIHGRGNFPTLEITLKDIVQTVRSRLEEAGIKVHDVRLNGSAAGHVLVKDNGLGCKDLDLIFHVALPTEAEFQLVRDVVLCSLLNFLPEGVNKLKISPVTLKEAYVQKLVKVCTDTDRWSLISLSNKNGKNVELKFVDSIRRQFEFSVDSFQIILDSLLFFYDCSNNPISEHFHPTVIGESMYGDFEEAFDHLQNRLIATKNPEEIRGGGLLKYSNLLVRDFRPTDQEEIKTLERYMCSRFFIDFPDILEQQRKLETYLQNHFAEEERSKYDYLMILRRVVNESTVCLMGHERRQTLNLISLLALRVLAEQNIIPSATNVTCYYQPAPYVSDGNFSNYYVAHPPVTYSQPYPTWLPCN
B2: Mothers against decapentaplegic homolog 4 (Homo sapiens), Q13485 (parent)
chain: B1 chain
partner: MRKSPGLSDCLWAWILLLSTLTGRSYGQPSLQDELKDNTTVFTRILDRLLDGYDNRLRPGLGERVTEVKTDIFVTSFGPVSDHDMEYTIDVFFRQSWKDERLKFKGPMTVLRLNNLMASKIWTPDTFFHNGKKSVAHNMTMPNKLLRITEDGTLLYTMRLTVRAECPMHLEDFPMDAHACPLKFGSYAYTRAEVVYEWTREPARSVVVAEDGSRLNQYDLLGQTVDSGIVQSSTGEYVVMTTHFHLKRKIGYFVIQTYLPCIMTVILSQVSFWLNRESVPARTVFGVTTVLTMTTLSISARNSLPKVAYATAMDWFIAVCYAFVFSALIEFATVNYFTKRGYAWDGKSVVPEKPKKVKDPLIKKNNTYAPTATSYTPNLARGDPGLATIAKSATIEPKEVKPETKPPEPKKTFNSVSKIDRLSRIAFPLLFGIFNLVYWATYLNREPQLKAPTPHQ
B3: Mothers against decapentaplegic homolog 4 (Homo sapiens), Q13485 (parent)
chain: B1 chain
partner: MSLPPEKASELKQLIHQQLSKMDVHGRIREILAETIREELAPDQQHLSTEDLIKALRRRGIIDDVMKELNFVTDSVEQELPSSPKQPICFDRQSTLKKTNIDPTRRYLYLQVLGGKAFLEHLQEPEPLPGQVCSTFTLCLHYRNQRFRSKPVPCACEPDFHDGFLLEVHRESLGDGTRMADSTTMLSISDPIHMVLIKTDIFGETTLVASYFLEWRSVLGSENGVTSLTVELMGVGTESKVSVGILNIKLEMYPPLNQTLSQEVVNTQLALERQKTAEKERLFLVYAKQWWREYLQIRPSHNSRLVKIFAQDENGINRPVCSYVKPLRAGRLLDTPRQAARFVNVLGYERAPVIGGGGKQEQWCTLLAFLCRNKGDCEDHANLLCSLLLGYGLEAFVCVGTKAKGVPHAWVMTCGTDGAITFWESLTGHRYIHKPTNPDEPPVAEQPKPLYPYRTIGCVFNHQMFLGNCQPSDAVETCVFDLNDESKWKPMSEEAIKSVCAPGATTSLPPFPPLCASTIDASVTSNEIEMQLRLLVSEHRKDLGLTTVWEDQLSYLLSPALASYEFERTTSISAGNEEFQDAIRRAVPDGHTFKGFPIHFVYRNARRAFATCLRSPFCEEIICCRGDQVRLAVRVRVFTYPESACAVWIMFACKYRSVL

Variants of: B1
Details: with tet5c_human TENT5C

effect of a mutation on the interaction | Variant
with no effect | D351H

Variants of: B1
Details: with tet5c_human TENT5C
Remark: another data set of the same source

effect of a mutation on the interaction | Variant
with no effect | G386D

Variants of: B1
Details: with tet5c_human TENT5C
Remark: another data set of the same source

effect of a mutation on the interaction | Variant
with no effect | R361H

Variants of: B1
Details: with tet5c_human TENT5C
Remark: another data set of the same source

effect of a mutation on the interaction | Variant
with no effect | R361C

Variants of: B2
Details: with gbra1_human GABRA1, P14867

effect of a mutation on the interaction | Variant
with no effect | R361C

Variants of: B2
Details: with gbra1_human GABRA1, P14867
Remark: another data set of the same source

effect of a mutation on the interaction | Variant
with no effect | R361H

Variants of: B2
Details: with gbra1_human GABRA1, P14867
Remark: another data set of the same source

effect of a mutation on the interaction | Variant
with no effect | D351H

Variants of: B2
Details: with gbra1_human GABRA1, P14867
Remark: another data set of the same source

effect of a mutation on the interaction | Variant
with no effect | G386D

Variants of: B3
Details: with cep76_human CEP76, Q8TAP6

effect of a mutation on the interaction | Variant
with no effect | D351H

Variants of: B3
Details: with cep76_human CEP76, Q8TAP6
Remark: another data set of the same source

effect of a mutation on the interaction | Variant
with no effect | R361C

Variants of: B3
Details: with cep76_human CEP76, Q8TAP6
Remark: another data set of the same source

effect of a mutation on the interaction | Variant
with no effect | R361H

Reference: IntAct's records for PubMed 35512704
